Data on three proteins can be found in patent US11203773B2, “Designer ribosomes and methods of use thereof for incorporating non-standard amino acids into polypeptides” (Yale University, priority 2016, dated 2021).

Substrate in data set [1]: N[C@@H](Cc1ccc(O)cc1)C(=O)O
Put plainly: Adenylation of α- and β-Tyr, coupled MESG/PNP pyrophosphate release assay. It is filed as biochemical, E. coli. The conditions noted are these: other: adenylation, TyrRS. The text has this: ii. Adenylation of α- and β-Tyr catalyzed by E. coli TyrRS. These reactions were monitored spectrophotometrically in a coupled assay using inorganic pyrophosphatase, 2-amino-6-mercapto-7-methylpurine ribonucleoside (MESG), and purine nucleoside phosphorylase (PNP) to monitor the rate of pyrophosphate release, according to the manufacturer's instructions (Enzcheck Pyrophosphate assay kit, Thermo Fisher Scientific). The assay measures the increase in absorbance at 360 nm due to MESG phosphorolysis, and two molecules of MESG are consumed per pyrophosphate generated. This direct assay could be employed for TyrRS because the rate of ATP hydrolysis (in the absence of amino acid substrate) was insignificant, which was not the case for the other synthetases which therefore required the more laborious pyrophosphate exchange assay described above. […] For TyrRS, kcat is the turnover number (units of reciprocal time) since the change in absorbance can be directly correlated to concentration of pyrophosphate formed.

Substrate in data set [2]: N[C@@H](Cc1ccc(O)cc1)C(=O)O
Put plainly: Aminoacylation of 32P-tRNA with α- and β3-amino acids. It is filed as biochemical, E. coli. The conditions noted are these: other: aminoacylation, TyrRS.

Substrate in data set [3]: CSCC[C@H](N)C(=O)O
Put plainly: purified protein, by the assay type. The conditions noted are these: MetRS.

Substrate in data set [4]: N[C@@H](Cc1ccccc1)C(=O)O
Put plainly: purified protein, by the assay type. The conditions noted are these: other: adenylation, PheRS; pH 7.0; 25.0 °C.

Substrate in data set [5]: N[C@@H](Cc1ccccc1)C(=O)O
Put plainly: Aminoacylation of 32P-tRNA with α- and β3-amino acids. It is filed as biochemical, E. coli. The conditions noted are these: other: aminoacylation, PheRS.

B1: E. coli TyrRS (Escherichia coli K-12) (protein)
chain: MASSNLIKQLQERGLVAQVTDEEALAERLAQGPIALYCGFDPTADSLHLGHLVPLLCLKRFQQAGHKPVALVGGATGLIGDPSFKAAERKLNTEETVQEWVDKIRKQVAPFLDFDCGENSAIAANNYDWFGNMNVLTFLRDIGKHFSVNQMINKEAVKQRLNREDQGISFTEFSYNLLQGYDFACLNKQYGVVLQIGGSDQWGNITSGIDLTRRLHQNQVFGLTVPLITKADGTKFGKTEGGAVWLDPKKTSPYKFYQFWINTADADVYRFLKFFTFMSIEEINALEEEDKNSGKAPRAQYVLAEQVTRLVHGEEGLQAAKRITECLFSGSLSALSEADFEQLAQDGVPMVEMEKGADLMQALVDSELQPSRGQARKTIASNAITINGEKQSDPEYFFKEEDRLFGRFTLLRRGKKNYCLICWK
notes: made in house; host or cells: E. coli BL21(DE3)
Turning to B1, in data set [1], the Km was determined as 21.4 ± 6.9 µM, the kcat amounted to 0.0203 ± 0.00183 s⁻¹ and the kcat/Km is 1000 ± 333 M⁻¹ s⁻¹. In data set [2], the Km worked out at 12.4 ± 4.8 µM, the kcat was determined as 1.18 ± 0.128 s⁻¹ and the kcat/Km came to 95000 ± 38300 M⁻¹ s⁻¹.

B2: E. coli MetRS (Escherichia coli K-12) (protein)
chain: MTQVAKKILVTCALPYANGSIHLGHMLEHIQADVWVRYQRMRGHEVNFICADDAHGTPIMLKAQQLGITPEQMIGEMSQEHQTDFAGFNISYDNYHSTHSEENRQLSELIYSRLKENGFIKNRTISQLYDPEKGMFLPDRFVKGTCPKCKSPDQYGDNCEVCGATYSPTELIEPKSVVSGATPVMRDSEHFFFDLPSFSEMLQAWTRSGALQEQVANKMQEWFESGLQQWDISRDAPYFGFEIPNAPGKYFYVWLDAPIGYMGSFKNLCDKRGDSVSFDEYWKKDSTAELYHFIGKDIVYFHSLFWPAMLEGSNFRKPSNLFVHGYVTVNGAKMSKSRGTFIKASTWLNHFDADSLRYYYTAKLSSRIDDIDLNLEDFVQRVNADIVNKVVNLASRNAGFINKRFDGVLASELADPQLYKTFTDAAEVIGEAWESREFGKAVREIMALADLANRYVDEQAPWVVAKQEGRDADLQAICSMGINLFRVLMTYLKPVLPKLTERAEAFLNTELTWDGIQQPLLGHKVNPFKALYNRIDMRQVEALVEASKEEVKAAAAPVTGPLADDPIQETITFDDFAKVDLRVALIENAEFVEGSDKLLRLTLDLGGEKRNVFSGIRSAYPDPQALIGRHTIMVANLAPRKMRFGISEGMVMAAGPGGKDIFLLSPDAGAKPGHQVK
On to B2, for which the Km in data set [3] (other: adenylation, pH 7.0, 25.0 °C) was 23.4 ± 8.0 µM. In data set [3] (other: aminoacylation), the Km is 243.4 ± 55.7 µM, the kcat amounted to 0.0233 s⁻¹ and the kcat/Km came out at 100 M⁻¹ s⁻¹.

B3: E. coli PheRS (Escherichia coli K-12) (protein)
chain: MSHLAELVASAKAAISQASDVAALDNVRVEYLGKKGHLTLQMTTLRELPPEERPAAGAVINEAKEQVQQALNARKAELESAALNARLAAETIDVSLPGRRIENGGLHPVTRTIDRIESFFGELGFTVATGPEIEDDYHNFDALNIPGHHPARADHDTFWFDTTRLLRTQTSGVQIRTMKAQQPPIRIIAPGRVYRNDYDQTHTPMFHQMEGLIVDTNISFTNLKGTLHDFLRNFFEEDLQIRFRPSYFPFTEPSAEVDVMGKNGKWLEVLGCGMVHPNVLRNVGIDPEVYSGFAFGMGMERLTMLRYGVTDLRSFFENDLRFLKQFK
notes: as for B1
With B3, the Km amounted to 52.8 ± 25.8 µM in data set [4] and 200.4 ± 78.8 µM in data set [5].
